Test results as given in the Human Domainome abundance scans (Beltran et al. 2025).

B1: REST corepressor 3, residues 87 to 134; numbered along this chain, Q9P2K3 (parent)
chain: DEWTVEDKVLFEQAFSFHGKSFHRIQQMLPDKTIASLVKYYYSWKKTR

Variants of: B1
Experiment: abundance fitness (aPCA) (normalised: wild type 0, dead -1); higher = more abundant; growth selection in yeast, the domain comes from the species named
Settings: Homo sapiens

Abundance fitness of substitutions, site by site:
Q27: M 0.449; R -0.244; V 0.395; S -0.482; A 0.069; L -0.326; G -0.673; T -0.406; K -0.419; C -0.752; D -0.62; I -0.924
S21: M -0.344; R 0.233; V -0.323; H -0.185; W -0.107; N 0.349; L -0.63; G -1.12; Q 0.303
H23: W -0.56; G -0.642; K 0.381; S -0.092; R -0.407; Q -0.258; Y -0.702; E -0.07; C -0.649; V -0.3; A -0.164; N -0.124; P -0.331; D -0.517
T33: L -0.686; G -0.265; E -0.647; Q -0.658; H -0.781; N -0.508; P 0.275; A -0.55; W -0.693; V -0.776; K -0.109; R -0.688; Y -0.708; C -0.805; D -0.354; S -0.385
K32: M -0.799; E -0.836; G -0.89; W -0.945; T -0.819; A -0.854; Q -0.888; S -0.972; D -0.903; R -0.473; Y -0.885; V -0.93; F -0.814; H -0.45; L -0.673; I -0.978; N -0.776; P -0.742; C -0.816
R24: V -0.508; G -0.74; S -0.465
I34: A -0.845; D -0.437; E -0.455; H -0.73; G -0.767; C -0.869; F -0.036
L29: A -0.832; Q -0.692; W -0.932; R -0.771; K -0.645; G -0.794; C -0.795; F -0.302; I -0.315
D31: H -0.295; N -0.337; R -0.253; P -0.621; L -0.314; Y -0.027; K -0.136; T -0.316; V -0.517; A -0.429; W -0.539; E 0.026; I -0.733; G 0.029; C -0.45; S 0.225
M28: G -0.806; A -0.382; F -0.502; H -0.364; Y -0.635; Q -0.429; L -0.558; P -0.733; S -0.517; K -0.686; W -0.589; R -0.618; T -0.461; E -0.616
I25: S -0.945; M -0.708; R -0.975; F -0.838; A -0.567; H -0.692; E -0.693; K -0.54; V -0.74; T -0.713; D -0.531; Y -0.522; P -0.568; L -0.358; G -0.903
P30: E -0.563; H -0.498; S -0.851; L -0.928; F -0.182; V -0.726; G -0.957; M -0.891; Q -0.716; W 0.322; A -0.811; K -0.177
Q26: R -0.232; G -0.757; Y -0.428; F -0.595; V -0.692; S -0.79; M -0.438; W -0.82; C -0.172; L -0.648; K 0.249
F22: W 0.52; M -0.55; Y -0.424; S -0.897; V -0.809; K -0.551; R -1.07; L -0.693; A -0.692; G -0.739
